Measured values: IntAct's records for PubMed 16885985

B1: Merlin (Homo sapiens), P35240 (parent)
chain: MAGAIASRMSFSSLKRKQPKTFTVRIVTMDAEMEFNCEMKWKGKDLFDLVCRTLGLRETWFFGLQYTIKDTVAWLKMDKKVLDHDVSKEEPVTFHFLAKFYPENAEEELVQEITQHLFFLQVKKQILDEKIYCPPEASVLLASYAVQAKYGDYDPSVHKRGFLAQEELLPKRVINLYQMTPEMWEERITAWYAEHRGRARDEAEMEYLKIAQDLEMYGVNYFAIRNKKGTELLLGVDALGLHIYDPENRLTPKISFPWNEIRNISYSDKEFTIKPLDKKIDVFKFNSSKLRVNKLILQLCIGNHDLFMRRRKADSLEVQQMKAQAREEKARKQMERQRLAREKQMREEAERTRDELERRLLQMKEEATMANEALMRSEETADLLAEKAQITEEEAKLLAQKAAEAEQEMQRIKATAIRTEEEKRLMEQKVLEAEVLALKMAEESERRAKEADQLKQDLQEAREAERRAKQKLLEIATKPTYPPMNPIPAPLPPDIPSFNLIGDSLSFDFKDTDMKRLSMEIEKEKVEYMEKSKHLQEQLNELKTEIEALKLKERETALDILHNENSDRGGSSKHNTIKKLTLQSAKSRVAFFEEL
partner: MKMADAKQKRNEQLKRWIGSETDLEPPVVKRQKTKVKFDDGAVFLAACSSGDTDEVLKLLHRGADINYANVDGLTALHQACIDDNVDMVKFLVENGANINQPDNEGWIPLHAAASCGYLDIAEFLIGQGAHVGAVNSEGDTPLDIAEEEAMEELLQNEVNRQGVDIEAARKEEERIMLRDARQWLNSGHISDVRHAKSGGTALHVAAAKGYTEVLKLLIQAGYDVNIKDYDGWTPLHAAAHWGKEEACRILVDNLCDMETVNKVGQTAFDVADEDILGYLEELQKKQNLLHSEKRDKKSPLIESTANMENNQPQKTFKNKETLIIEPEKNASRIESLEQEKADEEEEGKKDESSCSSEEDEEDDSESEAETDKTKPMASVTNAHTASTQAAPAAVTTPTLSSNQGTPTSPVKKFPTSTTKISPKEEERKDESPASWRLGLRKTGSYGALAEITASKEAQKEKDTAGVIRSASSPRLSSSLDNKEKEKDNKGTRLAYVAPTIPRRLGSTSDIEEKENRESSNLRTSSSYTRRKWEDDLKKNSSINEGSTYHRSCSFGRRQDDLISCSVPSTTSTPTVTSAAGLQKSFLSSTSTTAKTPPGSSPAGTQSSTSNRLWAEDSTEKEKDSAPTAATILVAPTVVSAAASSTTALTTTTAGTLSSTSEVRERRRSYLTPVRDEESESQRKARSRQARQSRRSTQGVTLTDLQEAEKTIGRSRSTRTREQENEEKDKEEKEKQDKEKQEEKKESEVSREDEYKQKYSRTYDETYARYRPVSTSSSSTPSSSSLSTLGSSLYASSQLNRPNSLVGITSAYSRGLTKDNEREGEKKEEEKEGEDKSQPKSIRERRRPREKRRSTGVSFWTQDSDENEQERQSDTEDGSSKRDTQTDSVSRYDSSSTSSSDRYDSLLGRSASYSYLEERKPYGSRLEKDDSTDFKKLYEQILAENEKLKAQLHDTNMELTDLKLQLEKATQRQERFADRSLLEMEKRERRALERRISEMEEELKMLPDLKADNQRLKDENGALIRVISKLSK

Variants of: B1
Settings: with mypt1_rat Ppp1r12a

Row | Variant | effect of a mutation on the interaction
1 | S518A | decreasing interaction
